The series is described as follows: protein stability index of a GFP-peptide fusion (yeast GPS) (PSI 1-4); higher = more stable; sorted into four equal gates, so the index is relative within each strain. In a few lines:
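Tiled yeast protein peptides of 17 residues were each joined downstream of GFP, on plasmids that also express Cherry. The pooled library was maintained in yeast, and mid-log cultures in leucine-free medium were sorted into four equal gates on the GFP/Cherry ratio. Plasmids from every gate were amplified by PCR and sequenced on Illumina, with barcodes linking reads to strains. The protein stability index of a peptide is its gate-number-weighted read frequency summed over the gates.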

± gives the uncertainty stated by the source.

In the case of RQCFQDNCCDFKVRTNL [MED1], the protein stability index (doa10∆) stood at 3.28 ± 0.053, the protein stability index (pdr5∆) is 3.23 ± 0.063, the protein stability index (san1∆) was found to be 3.42 ± 0.04 and the protein stability index (ubr1∆) was determined as 3.21 ± 0.038.
Consider HKHNIMKNENANPKKLA [CDC53], for which the protein stability index is, setting by setting: (doa10∆) 2.14 ± 0.042; (pdr5∆) 2.31 ± 0.049; (san1∆) 2 ± 0.064; (ubr1∆) 2.35 ± 0.057.
KSSAFVIDIGASGCNVT [ARP7]: the protein stability index was determined as 1.81 ± 0.039 (doa10∆), 2.46 ± 0.063 (pdr5∆), 2.17 ± 0.067 (san1∆) and 2.55 ± 0.045 (ubr1∆).
The matching figures for GTFTADYSKPNLPPHYA [SSN2]: 2.23 ± 0.055, 2.28 ± 0.049, 2.16 ± 0.068 and 2.15 ± 0.039.
LKNCKISNINIPISSET [SMC1]: the protein stability index by setting is: (doa10∆) 2.81 ± 0.17; (pdr5∆) 2.95 ± 0.11; (san1∆) 3.05 ± 0.08; (ubr1∆) 2 ± 0.067.
In the case of THEDLPKEVDGLEVGPV [IRR1], the protein stability index (doa10∆) worked out at 3.21 ± 0.091, the protein stability index (pdr5∆) amounted to 3.35 ± 0.11, the protein stability index (san1∆) was determined as 3.06 ± 0.094 and the protein stability index (ubr1∆) came to 3.18 ± 0.086.
The matching figures for FFDGSASSTPIPVLGKP [YOR098C/NUP1]: 2.6 ± 0.044, 2.94 ± 0.04, 2.72 ± 0.036 and 2.67 ± 0.026.
Regarding RQRELLIAHQRSAWNNN [GRR1], the protein stability index (doa10∆) amounted to 1.94 ± 0.045, the protein stability index (pdr5∆) was found to be 2.24 ± 0.046, the protein stability index (san1∆) was 2.31 ± 0.06 and the protein stability index (ubr1∆) was 2.16 ± 0.035.
With ESEYREFESELKNVEET [ESC2], the protein stability index (doa10∆) is 3.54 ± 0.25, the protein stability index (pdr5∆) came to 3.47 ± 0.2, the protein stability index (san1∆) was determined as 3.2 ± 0.18 and the protein stability index (ubr1∆) amounted to 3.31 ± 0.15.
For the sequence LKLCLGDHSSVPVALKG [YMR129W/POM152], the protein stability index came to 2.79 ± 0.086 (doa10∆), 2.91 ± 0.06 (pdr5∆), 2.74 ± 0.1 (san1∆) and 3 ± 0.048 (ubr1∆).
As for TRPYILERARDVNIVNR [YCG1], the protein stability index worked out at 3.29 ± 0.1 (doa10∆), 2.78 ± 0.21 (pdr5∆), 3.48 ± 0.18 (san1∆) and 3.08 ± 0.11 (ubr1∆).
Consider VTPIIDGIVVKNAVVRS [ARP7], for which the protein stability index runs as follows: (doa10∆) 1.51 ± 0.074; (pdr5∆) 1.92 ± 0.082; (san1∆) 1.61 ± 0.13; (ubr1∆) 1.74 ± 0.16.
Take VKGRENELLLPSELNQL [RPC82]: the protein stability index (san1∆) is 3.35 ± 0.13.
The sequence VEGHLFEIIDEASKKSA [FAS1] showed a protein stability index (doa10∆) of 3.26 ± 0.17, a protein stability index (pdr5∆) of 3.5 ± 0.15, a protein stability index (san1∆) of 3.22 ± 0.06 and a protein stability index (ubr1∆) of 3.33 ± 0.073.
With QSISGTLELSAQFRVPR [SWP82], the protein stability index runs as follows: (doa10∆) 2.46 ± 0.077; (pdr5∆) 2.77 ± 0.069; (san1∆) 2.52 ± 0.084; (ubr1∆) 2.79 ± 0.066.
Regarding QKTQELNAKYQSLGLDD [ISW2], the protein stability index reads like this: (doa10∆) 3.31 ± 0.061; (pdr5∆) 3.26 ± 0.048; (san1∆) 3.17 ± 0.042; (ubr1∆) 3.31 ± 0.052.
As for VKTKTIELIDYDKLPAG [RET1], the protein stability index runs as follows: (doa10∆) 2.98 ± 0.12; (pdr5∆) 3.42 ± 0.13; (san1∆) 2.67 ± 0.19; (ubr1∆) 2.95 ± 0.082.
As to LEDLKDVYASKVRLNAS [PRP8], the protein stability index turned out to be 2.31 ± 0.043 (doa10∆), 2.1 ± 0.041 (pdr5∆), 2.47 ± 0.047 (san1∆) and 2.27 ± 0.04 (ubr1∆).
As for SIGSDILTAEKMRGNGN [RRP4], the protein stability index reads like this: (doa10∆) 3.21 ± 0.097; (pdr5∆) 3.39 ± 0.09; (san1∆) 3.38 ± 0.05; (ubr1∆) 3.32 ± 0.062.
Turning to TESVPEPKLFRMRIFAS [RPL20A], the protein stability index runs as follows: (doa10∆) 3.36 ± 0.13; (pdr5∆) 3.02 ± 0.18; (san1∆) 3.02 ± 0.13; (ubr1∆) 1.21 ± 0.24.
Turning to FDQAGKKVSRRNARATR [RPL13A], the protein stability index (doa10∆) was 2.51 ± 0.073, the protein stability index (pdr5∆) turned out to be 3.36 ± 0.057, the protein stability index (san1∆) is 1.92 ± 0.12 and the protein stability index (ubr1∆) amounted to 2.34 ± 0.067.
In the same order, the values of TGKYGVRYGSSLRRQVK [RPL43A] are 3 ± 0.079, 3.23 ± 0.066, 3.42 ± 0.057 and 3.06 ± 0.046.
With LYEKLKQEIMMSDLFTF [ISW2], the protein stability index is, setting by setting: (doa10∆) 2.69 ± 0.099; (pdr5∆) 2.34 ± 0.063; (san1∆) 2.14 ± 0.1; (ubr1∆) 2.64 ± 0.06.
For EDFLDKSYYLNTVMLQG [AAR2], the protein stability index by setting is: (doa10∆) 2.02 ± 0.067; (pdr5∆) 2.24 ± 0.097; (san1∆) 2.24 ± 0.15; (ubr1∆) 1.22 ± 0.052.
On to SLFTYFREAIVATEPLL [PRP8], for which the protein stability index is 1.82 ± 0.048 (doa10∆), 1.83 ± 0.051 (pdr5∆), 2.73 ± 0.063 (san1∆) and 1.97 ± 0.041 (ubr1∆).
